From the nanobody polyreactivity screen of Harvey et al. (2022) come the findings set out here.

The data set is described as follows: yeast display, Sf9 membrane polyspecificity reagent, FACS + sequencing; frameworks hold sequencing errors. Put shortly: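 In a synthetic yeast display library (Saccharomyces cerevisiae BJ5465), nanobody expression was induced with galactose for 36–48 hours. FACS gates were set low and high (top ~1%) using anti-HA fluorescence for expression and streptavidin fluorescence for binding of the Sf9 membrane reagent. Each polyreactivity label is drawn from the gate of origin.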
Regarding “QVQLVESGGGLFQAGGSLRLSCAASGLIFGRYAMGWYRPAPGKERELVAAISRSGGSTHYADSVKGRFTISRDNAKNTVYLQMNSLKPEDTAVYYCAAVWPFDRSRMDYWGQGTQVTVSS”, the “polyreactivity (PSR sort gate)” value is “high polyreactivity”.
Under “QVQLVESGGGLVQAGGSLRLSCAASGSTFSRNASGWYRQAPGKERELVAAISRRGDTTYYADSVKGRFTISRDNAKNTVYLQMNSLKPEDTAVYYCNRLTIGSSSYDYWGQGTQVTVSS” stands “high polyreactivity”; under “QVQLVESGGGLVQAGGSLRLSCAASGFTFPLYAMGWYRQAPGKERELVAAIRSSGGSTYYADSVKGRFTISRDNAKNTVYLQMNSLKPEDTAVYYCAKVRYTRRLDTYYYWGQGTQVTVSS”, “high polyreactivity”; under “QDHLVESGGGLVQAGGSLRLSCAASGRTVGIYAMGWYRQAPGKVRELVASISWSGGRTYYADSVKGRFTISRENAKNTVYLQMNSLKPEDTAVYYCAAYGVYYPRSWLYFDWYGYCGQGTQVTVSS”, “high polyreactivity”.
To “QVQLVESGGGLLQAGGSLRLSCADSGRTFGGYSMGWYRQATGKERELVAAISKRSGSTYYADSVKGRFTISRVNAKNTVYLQMNSLKPEDTAVYYCNKVWFQRSVQPVEYDYWGQGTQVTVSS” belongs “high polyreactivity”; to “QVQLVESGGGLVQAGGSLRLSCAASGLIFANYAMGWYRQAPGKERELVAAITWSGGTTYYADSVKGRFTISRDNAKNTVYLQMNSLKPEDTAVYYCAAEVPYYQAAEYDYWGQGTQVTVSS”, “low polyreactivity”.
To “QVQLVESGGGLVQAGGSLPLSCAASGITFRYYAMGWYRQAPGKERELVAAITRGGRTNYADSVKGRFTISRDNAKNTVYLQMNSLKPEDTAVYYCATGRDSNFGNSYYYWGQGTQVTVSS” belongs “high polyreactivity”; to “QVQLQESGGGLVQAGGSLRLSCAATGTIFTDRFMGWYRQAPGKERELVAGISPGTSTNYADSVKGRFTISRDNAKNTVYLQMNSLKPEDTAVYYCAADWSTGNTLPYWGQGTQVTVSS”, “high polyreactivity”.
On to “QVQLVESGGGLVQAGGSLRLSCAASGSIFGENAMGRYRQAPGKERELVAAITSGGSTDYADSVKGRFTISRDNAKNTVYLQMNSLKPEDTAVYYCAASGRVGPGYWYDSWGQGTQVTVSS”, for which the “polyreactivity (PSR sort gate)” value is “low polyreactivity”.
Under “QVQLVESGGGLVQAGGSLRLSCAASGSTSYGYAMGWYRQAPGKERELVAAISYSGSSTYYADSVKGRFTISRDNAKNTVYLQMNSLKPEDTAVYYCNAKVYPGVGPKHRYDYWGQGTQVTVSS” stands “low polyreactivity”; under “QVQLVESGGGLVQAGGSLRLSCAASGSTFVDYAMGWYRQAPGKERELVAAINSDGGGTYYADSVKGRFTISRDNAKNTVYLQMNSLKPEDTAVYYCNVEYEDYYAQRYGYDYWGQGTQVTVSS”, “low polyreactivity”.
To “QVQLVESGGGLVQAGGSLRLSCAASGFIFFPYTMGWYRQAPGKERELVAAITNGGSTSYADSVKGRFTISRDNAKNTVYLQMNSLKPEDTAVYYCAADLGRNLLHTYYYWGQGTQVTVSS” belongs “low polyreactivity”; to “QVQLVESGGGLVQAGGSLRLSCAASGSIFGLNAMGWYRQAPGKERELVAAIDIIGGSTYYADSVKGRFTISRDNAKNTVYLQMNSLKPEDTAVYYCAAEADFWRFVEYDYWGQGSQVTVSS”, “low polyreactivity”.
In the case of “QVHLVESGGGLVQAGGSLRLSCAASGLTFGRNAMGWYRQAPGKERELVAVISRSGGSTYYADSVKGRFTISRDNAQNTVYLQMNSLKPEDTAVYYCAAGAYSYRKYRSYDYWGQGTQVNVSS”, the “polyreactivity (PSR sort gate)” value is given as “high polyreactivity”.
Under “QVQLVDSGGGLVQAGGSLRLSCAASGSIFYNYVMGWCRQAPGKEREMVAAISSGGGTNYADSVKGRFTISRDNAKYTVYLQMNSLKPEDTAVYYCAKASAYGLANDYDYWGQGTQVTVSS” stands “low polyreactivity”; under “QVQLVESGGGLVQAGGSLRLSCAASGITFPGNVMGWYRQAPGKERELVAAISTSGGSTYYADSVKGRFTISRDNAKNTVYLQMNSLKPEDTAVYYCARQYIRSSYGYWGQGTQVTVSS”, “low polyreactivity”.
